Laboratory results as given in patent US20050008615A1 (GlaxoSmithKline, published 2005).
Substitutions are numbered along the chain they refer to. Numbers in names are those of the source. Where “and” joins values, the source holds several entries; their conditions need not be identical. Identical values can stand only once.

B1: human IL-18 C38S, C68D, D157C (SEQ ID NO:8) (ligand)
chain: YFGKLESKLSVIRNLNDQVLFIDQGNRPLFEDMTDSDSRDNAPRTIFIISMYKDSQPRGMAVTISVKDEKISTLSCENKIISFKEMNPPDNIKDTKSDIIFFQRSVPGHDNKMQFESSSYEGYFLACEKERDLFKLILKKEDELGDRSIMFTVQNEC
notes: Non-pegylated substitution mutant; also called IL-18 C157 (C38S, C68D, D157C)
B2: human IL-18 C38S, C68D, L144C (SEQ ID NO:7) monopegylated at C144 with 30K PEG (ligand)
chain: B1 chain with L144C, C157D
modifications: methoxy polyethylene glycol maleimide, 30,000 Da, on Cys 144
notes: also called IL-18 C144PEG30K
B3: human IL-18 C38S, C68S, D157C (SEQ ID NO:10) monopegylated at C157 with 20K PEG (ligand)
chain: B1 chain with D68S
modifications: methoxy polyethylene glycol maleimide, 20,000 Da, on Cys 157
notes: also called IL-18 C157PEG20K; 157C-20K
B4: human IL-18 C38S, C68D, L144C (SEQ ID NO:7) (ligand)
chain: B1 chain with L144C, C157D
notes: Non-pegylated substitution mutant; also called IL-18 C144 (C38S, C68D, L144C)
B5: human IL-18 C38S, C68S, L144C (SEQ ID NO:9) (ligand)
chain: B1 chain with D68S, L144C, C157D
notes: Non-pegylated substitution mutant; also called IL-18 C144 (C38S, C68S, L144C)
B6: human IL-18 C38S, C68D, D157C (SEQ ID NO:8) monopegylated at C157 with 40K PEG (ligand)
chain: B1 chain
modifications: methoxy polyethylene glycol maleimide, 40,000 Da, on Cys 157
notes: also called IL-18 C157PEG40K; 157C-40K
B7: human IL-18 C38S, C68D, L144C (SEQ ID NO:7) monopegylated at C144 with 20K PEG (ligand)
chain: B1 chain with L144C, C157D
modifications: methoxy polyethylene glycol maleimide, 20,000 Da, on Cys 144
notes: also called IL-18 C144PEG20K
B8: human IL-18 C38S, C68S, D157C (SEQ ID NO:10) (ligand)
chain: B1 chain with D68S
notes: Non-pegylated substitution mutant; also called IL-18 C157 (C38S, C68S, D157C)
B9: human IL-18 C38S, C68S, D157C (SEQ ID NO:10) monopegylated at C157 with 30K PEG (ligand)
chain: B1 chain with D68S
modifications: methoxy polyethylene glycol maleimide, 30,000 Da, on Cys 157
notes: also called IL-18 C157PEG30K; 157C-30K
B10: human IL-18 C38S, C68D, D157C (SEQ ID NO:8) monopegylated at C157 with 20K PEG (ligand)
chain: B1 chain
modifications: methoxy polyethylene glycol maleimide, 20,000 Da, on Cys 157
notes: as for B3
B11: human IL-18 C38S, C68D, D157C (SEQ ID NO:8) monopegylated at C157 with 30K PEG (ligand)
chain: B1 chain
modifications: methoxy polyethylene glycol maleimide, 30,000 Da, on Cys 157
notes: as for B9
B12: human IL-18 C38S, C68S, L144C (SEQ ID NO:9) monopegylated at C144 with 20K PEG (ligand)
chain: B1 chain with D68S, L144C, C157D
modifications: methoxy polyethylene glycol maleimide, 20,000 Da, on Cys 144
notes: also called IL-18 C144PEG20K
B13: human IL-18 C38S, C68S, L144C (SEQ ID NO:9) monopegylated at C144 with 30K PEG (ligand)
chain: B1 chain with D68S, L144C, C157D
modifications: methoxy polyethylene glycol maleimide, 30,000 Da, on Cys 144
notes: also called IL-18 C144PEG30K
B14: human IL-18 C38S, C68D, L144C (SEQ ID NO:7) monopegylated at C144 with 40K PEG (ligand)
chain: B1 chain with L144C, C157D
modifications: methoxy polyethylene glycol maleimide, 40,000 Da, on Cys 144
notes: also called IL-18 C144PEG40K

What follows are binders tested against T1, IL-18 receptor alpha chain (UniProt Q13478 19-329, limits assumed) (assay: SPR (BIAcore)).
T1 construct: also called IL-18Rα; IL-18 Rα
T1 sequence (looked up): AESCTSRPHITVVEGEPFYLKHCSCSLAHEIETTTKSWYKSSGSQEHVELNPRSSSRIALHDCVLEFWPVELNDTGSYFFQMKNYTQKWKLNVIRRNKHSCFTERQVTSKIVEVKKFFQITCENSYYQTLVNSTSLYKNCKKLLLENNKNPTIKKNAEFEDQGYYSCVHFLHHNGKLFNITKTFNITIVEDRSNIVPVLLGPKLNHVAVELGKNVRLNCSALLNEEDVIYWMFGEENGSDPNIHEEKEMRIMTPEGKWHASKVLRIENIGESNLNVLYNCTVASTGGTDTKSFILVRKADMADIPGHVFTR

Kd | Binder
0.196 µM | B1
4.26 µM | B2
5.5 µM | B3
0.222 µM | B4
0.534 µM | B5
22.9 µM | B6
2.69 µM | B7
0.41 µM | B8
6.34 µM | B9
5.16 µM | B10
5.33 µM | B11
5.19 µM | B12
8.26 µM | B13
5.35 µM | B14

Each binder was assayed against T2, IL-18 receptor (heterodimeric surface receptor composed of α- and β-chains) on KG-1 cells (assay: cell-based or functional assay).

NF-κB KG-1 EC50 | NF-κB KG-1 EC50 (ng/ml), av. | Binder
0.004 µg/mL | 4 ng/mL | B1
0.038 µg/mL | 38 ng/mL | B2
0.049 µg/mL and 0.059 µg/mL | 54 ng/mL | B3
0.0035 µg/mL and 0.0016 µg/mL | 2.6 ng/mL | B4
– | 2.6 ng/mL | B5
– | 278 ng/mL | B6
0.058 µg/mL and 0.066 µg/mL and 0.042 µg/mL | 55.3 ng/mL | B7
– | 2 ng/mL | B8
0.047 µg/mL | 47 ng/mL | B9
– | 37.3 ng/mL | B10
0.094 µg/mL and 0.043 µg/mL | 68.5 ng/mL | B11
0.071 µg/mL and 0.092 µg/mL | 81.5 ng/mL | B12
0.044 µg/mL | 44 ng/mL | B13
0.271 µg/mL and 0.33 µg/mL | 300 ng/mL | B14

Biological target: T2, IL-18 receptor (heterodimeric surface …)
Assay: cell-based or functional assay
Remark: another data set of the same source

NF-κB bioassay, reduction in potency relative to the native IL-18 | Binder
~10 fold | B1
~10 fold | B4
